{"source": "FireProtDB (doi:10.1016/s0022-2836(99)80018-7)", "conditions": "Bacillus amyloliquefaciens; pH 6.3; 25 °C; Urea; Fluorescence; MES 50 mM; reversible: yes; whole UniProt chain shown", "data": [{"protein": "Ribonuclease wild type, P00648 (protein) MMKMEGIALKKRLSWISVCLLVLVSAAGMLFSTAAKTETSSHKAHTEAQVINTFDGVADYLQTYHKLPDNYITKSEAQALGWVASKGNLADVAPGKSIGGDIFSNREGKLPGKSGRTWREADINYTSGFRNSDRILYSSDWLIYKTTDHYQTFTKIR", "values": [{"measurement": "denaturant m value", "result": 2.02, "unit": "kcal/mol/M"}, {"measurement": "denaturant midpoint (higher = more stable)", "result": 4.58, "unit": "M"}, {"measurement": "unfolding free energy", "result": 9.93, "unit": "kcal/mol"}]}]}
